Laboratory results published in US8258279B2, “Isolated nucleic acids encoding soluble corticotropin releasing factor receptor type 2 (sCRFR2) polypeptides” (Research Development Foundation, priority 2005, dated 2012).
Entries after “also recorded” stand apart in the source; their conditions may differ.

Columns and labels:
[1] = tested on: anti-sCRFR2α serum; test: Immunohistochemistry, specificity by preincubation of antiserum with synthetic immunogen; conditions: mouse brain sections; antiserum preincubated with immunogen
Procedure: Immunohistochemistry. Adult male C57B6J mice (Jackson Laboratories) and Sprague-Dawley albino rats (Harlan Sprague-Dawley) were anesthetized with chloral hydrate (350 mg/kg, ip) and perfused with Zamboni's fixative (Bittencourt et al., 1999), followed by 0-4 hr. post-fixation. Regularly spaced (1-in-4) series of 30 μm thick frontal sections throughout the brain were prepared for nickel-enhanced avidin-biotin-immunoperoxidase localization of sCRFR2α-ir using Vectastain Elite reagents (Vector Laboratories, Burlingame, Calif.). Primary sCRFR2α antisera were adsorbed against the carrier, affinity purified and used at a dilution of 1:2000. Specificity of immunostaining was evaluated using primary antisera preincubated overnight at 4° C. with 0-300 μM synthetic immunogen. Labeling was also evaluated in mutant mice deficient in either or both CRFRs (Smith et al., 1998; Bale et al. 2000). Detailed description of the fluorescence immunocytochemical analysis of COSM6 cells transfected with sCRFR2α can be found in the supporting text.
Further support for the specificity of labeling are observations that all immunolocalizations persisted in CRFR1- and/or CRFR2-deleted mice; note that the targeting construct used for generating each of the existing receptor-knockout lines would be expected to spare the sCRFR2α coding region (Smith et al., 1998; Timpl et al., 1998; Bale et al., 2000).

[2] = molecular target: T1, mUcn3 (Mus musculus, UniProt Q60748); test: Radioreceptor assay, competitive displacement of [125I-DTyr0]-astressin bound to sCRFR2α; assay type: binding
T1 construct: A cDNA corresponding to amino acids 20-143 was generated by PCR; made in house; host or cells: E. coli
Procedure: (§1) Radioreceptor assays. The soluble protein, purified either from COS M6 cell media or E. coli was incubated in triplicate wells with [^125I-DTyr^O]-astressin and increasing concentration of unlabeled peptides as described (Perrin et al., 2003).
(§2) The interactions of the sCRFR2α with CRF family ligands were assessed by radioreceptor assay using competitive displacement of [^125I-D Tyr^o]-astressin bound to sCRFR2α.

[3] = molecular target: T2, Astressin (Mus musculus, UniProt Q60748); test: as above; assay type: binding; conditions: range in parentheses in the next cell
T2 construct: A cDNA corresponding to amino acids 20-143 was generated by PCR; made in house; host or cells: E. coli
Procedure: as §1, §2

[4] = molecular target: T3, rUcn1 (Mus musculus, UniProt Q60748); test: as above; assay type: binding; conditions: range in parentheses in the next cell
T3 construct: A cDNA corresponding to amino acids 20-143 was generated by PCR; made in house; host or cells: E. coli
Procedure: as §1, §2

[5] = molecular target: T4, CRF (Mus musculus, UniProt Q60748); test: as above; assay type: binding; conditions: range in parentheses in the next cell
T4 construct: A cDNA corresponding to amino acids 20-143 was generated by PCR; made in house; host or cells: E. coli
Procedure: as §1, §2

[6] = molecular target: T5, mUcn2 (Mus musculus, UniProt Q60748); test: as above; assay type: binding; conditions: range in parentheses
T5 construct: A cDNA corresponding to amino acids 20-143 was generated by PCR; made in house; host or cells: E. coli
Procedure: as §1, §2

[7] = tested on: rabbit anti-sCRFR2α (aa 113-143); test: sCRFR2α radioimmunoassay (RIA); assay type: binding; conditions: anti-sCRFR2α at 1/300,000; synthetic sCRFR2α (113-143) as standard
Excerpt: FIGS. 3A-3C. A highly specific antiserum raised in rabbit using a synthetic peptide fragment encoding the unique C-terminal tail of mouse sCRFR2α protein (aa 113-143) was used to develop a sCRFR2α radioimmunoassay, used for immunoblot analysis and for immunocytochemistry. FIG. 3A is a western immunoblot of mouse sCRFR2α isolated from the medium of COS-M6 cells transiently transfected with sCRFR2αFLAG construct reacted with anti-sCRFR2α-(113-143) serum (left panel) or monoclonal M2 anti-FLAG (right panel). Lanes 1, 2, and 3 correspond to 0.1, 1.0, and 10 μl of sCRFR2α-FLAG extract, respectively. FIG. 3B, Displacement of [^125I]Tyr^113 sCRFR2α (aa 113-143) binding to rabbit anti-sCRFR2α (aa113-143) by synthetic sCRFR2α (aa 113-143) and by purified COS-M6 expressed sCRFR2α (aa 113-143)-FLAG. FIG. 3C, Immunofluorescence staining of COS-M6 cells transiently transfected with mouse sCRFR2α construct visualized with the anti-sCRFR2α (aa 113-143) serum followed by a Cy3-conjugated secondary antibody (FIG. 3C(b)). The slides were counterstained with DAPI to visualize both transfected and non transfected cells (FIG. 3C(a)).
Radio-Immuno Assays (RIA). […]

[8] = tested on: cAMP response to Ucn 1 and CRF in HEK293T cells transfected with mouse CRFR2α; test: CRE-luciferase reporter (EVX1) assay of the cAMP response; assay type: cell-based; conditions: 4 h, 0.0001-100 nM Ucn 1 or CRF, 0.1 nM sCRFR2α
Procedure: (§3) Luciferase reporter containing a fragment of the CRE promoter of the EVX1 gene was cotransfected into 293T cells with CRFR2α expression vectors. Luciferase activity was measured following treatment (4 h) with 0.0001-100 nM Ucn 1 or CRF, in the presence or absence of 0.1 nM sCRFR2α. Assays were normalized to cotransfected β-galactosidase activity. The representative means of six replicates from one experiment is shown in the graph. FIG. 5B, Equilibrated CATH.a cells were treated with Ucn 1 (10 nM) with or without sCRFR2α (0.4 or 4 nM). After 5 min of receptor stimulation, cell lysates were harvested and subjected to SDS-PAGE immunoblot analysis using phospho-ERK1/2-p42, 44 antibody and ERK2-p44 antibody. The ERK activation was calculated by normalizing the levels of phosphorylated ERK1/2-p42, 44 to total ERK2-p44. The representative of means of triplicates from one experiment is shown in the graph. *, P<0.05 vs. vehicle treatment, #, P<0.05 vs. Ucn 1 treatment, UD=undetected.
Transient transfections and luciferase assay. […]
(§4) To delineate the possible functions of sCRFR2α, the inventors studied its effects on signaling by CRF family ligands. […] Because the urocortins activate MAPK signaling (Brar et al., 2002), the inventors measured the ability of sCRFR2α to inhibit the activation by Ucn 1 of ERK1/2-p42, 44 in CATH.a cells, which endogenously express CRFR1 and CRFR2α.

[9] = tested on: activation by Ucn 1 of ERK1/2-p42, 44 in CATH.a cells; test: Extracellular receptor kinase 1/2 (ERK1/2) assay; assay type: cell-based; conditions: Ucn 1 10 nM, sCRFR2α 0.4 or 4 nM, 5 min
Procedure: as §3, with “The representative of means of triplicates from one experiment is shown in the graph. *, P<0.05 vs. vehicle treatment, #, P<0.05 vs. Ucn 1 treatment, UD=undetected.” left out
Extracellular receptor kinase 1/2 (ERK1/2) assay. […] Cells were harvested immediately and analyzed for phosphorylated ERK1/2-p42, 44, as previously described (Chen et al., 2005).
as §4

sCRFR2α (113-143): synthetic peptide fragment encoding the unique C-terminal tail (aa 113-143) of mouse sCRFR2α, used as immunogen and RIA standard (YRIALIVNYLGHCVSVVALVAAFLLFLVLRS; soluble splice isoform sCRFR2alpha; UniProt Q60748 113-143, looked up, fragment)
concentration blocking immunolabeling throughout the brain on pre-incubation of the antiserum [1]: ≥ 30 µM

B1: sCRFR2α: 143 amino acid soluble splice variant of mouse CRF receptor type 2α lacking exon six (protein)
chain: MDAALLLSLLEAQLQPGAGRRAAPGRLGSAPGPRRSLHLLQHDLGPDRDLLATERTRSPSRETVPRVLQWHQVQHDPECLQRVPGERDLGLKGQLLTLRTHFG
Inhibitory binding constants, Ki, mUcn3 [2]: much lower | Inhibitory binding constants, Ki, Astressin [3]: nanomolar affinities | Inhibitory binding constants, Ki, rUcn1 [4]: nanomolar affinities | Inhibitory binding constants, Ki, CRF [5]: nanomolar affinities | Inhibitory binding constants, Ki, mUcn2 [6]: much lower | EC50 in sCRFR2α RIA [7]: ~5 pg per tube | inhibition of the cAMP response to Ucn 1 and CRF (CRE luciferase activity) [8]: inhibit, in a dose dependent manner; also recorded: interferes with the induction of cAMP | inhibition of induction of phosphorylated ERK by Ucn 1 [9]: inhibits the induction of phosphorylated ERK; also recorded: interferes with the induction
